According to patent US20050282743A1, “Molecular interactions in cells” (Arbor Vita Corporation, priority 2001, published 2005):
Where two headings read alike, the source gives them in different places.

T1: GST-NOS1 PDZ domain 1 (Homo sapiens (Human)), P29475
T1 chain: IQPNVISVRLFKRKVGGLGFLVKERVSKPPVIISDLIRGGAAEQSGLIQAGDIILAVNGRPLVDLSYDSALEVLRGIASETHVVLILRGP

T2: GST-Shank 1 PDZ domain 1 (Homo sapiens (Human)), Q9UPX8
T2 chain: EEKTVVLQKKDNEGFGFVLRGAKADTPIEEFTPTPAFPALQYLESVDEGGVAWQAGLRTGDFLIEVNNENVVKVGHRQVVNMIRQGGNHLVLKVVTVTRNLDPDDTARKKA

T3: GST-EZRIN Binding Protein 50 PDZ domain 1 (Homo sapiens (Human)), O14745
T3 chain: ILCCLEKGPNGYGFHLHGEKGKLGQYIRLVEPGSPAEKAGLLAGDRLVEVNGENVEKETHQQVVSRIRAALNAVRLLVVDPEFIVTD

T4: GST-MUPP1 PDZ domain 10 (Homo sapiens (Human)), O75970
T4 chain: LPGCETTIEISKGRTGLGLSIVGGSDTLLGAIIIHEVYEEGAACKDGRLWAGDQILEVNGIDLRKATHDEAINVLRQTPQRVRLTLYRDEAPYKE

T5: GST-ZO-3 PDZ domain 1
T5 chain: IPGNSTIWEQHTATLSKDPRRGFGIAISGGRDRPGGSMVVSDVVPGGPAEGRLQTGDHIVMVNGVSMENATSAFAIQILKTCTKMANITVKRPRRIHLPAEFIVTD

T6: GST-ZO-3 PDZ domain 3 (Homo sapiens (Human)), O95049
T6 chain: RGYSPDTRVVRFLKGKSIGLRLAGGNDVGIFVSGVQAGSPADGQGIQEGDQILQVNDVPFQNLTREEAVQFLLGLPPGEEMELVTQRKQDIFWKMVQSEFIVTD

T7: GST-INADL PDZ domain 8 (Homo sapiens (Human)), Q8NI35
T7 chain: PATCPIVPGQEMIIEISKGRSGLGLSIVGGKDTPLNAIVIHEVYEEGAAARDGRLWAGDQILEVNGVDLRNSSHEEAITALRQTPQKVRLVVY

T8: GST-KIAA0147 PDZ domain 2 (Homo sapiens (Human)), Q14160
T8 chain: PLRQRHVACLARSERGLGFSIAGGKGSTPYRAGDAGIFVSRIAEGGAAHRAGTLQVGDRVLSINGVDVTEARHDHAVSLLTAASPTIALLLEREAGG

T9: GST-DLG1 PDZ domain 2 (Homo sapiens), Q12959
T9 chain: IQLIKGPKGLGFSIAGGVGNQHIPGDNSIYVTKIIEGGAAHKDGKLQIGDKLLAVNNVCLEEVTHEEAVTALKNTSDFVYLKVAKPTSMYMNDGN

T10: GST-Syntrophin gamma 2 PDZ domain 1 (Homo sapiens (Human)), Q9NY99
T10 chain: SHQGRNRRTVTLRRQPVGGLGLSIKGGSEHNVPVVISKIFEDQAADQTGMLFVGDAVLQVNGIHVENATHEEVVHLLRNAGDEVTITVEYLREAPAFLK

T11: GST-DLG2 PDZ domain 2 (Homo sapiens (Human)), Q15700
T11 chain: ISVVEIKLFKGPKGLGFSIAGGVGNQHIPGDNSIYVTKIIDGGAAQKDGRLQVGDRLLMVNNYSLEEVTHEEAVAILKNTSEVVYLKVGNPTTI

T12: GST-KIAA1634 PDZ domain 2 (Homo sapiens (Human)), Q5TCQ9
T12 chain: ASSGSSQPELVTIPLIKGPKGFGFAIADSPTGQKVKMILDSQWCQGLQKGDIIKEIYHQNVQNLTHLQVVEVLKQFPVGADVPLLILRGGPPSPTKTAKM

T13: GST-NeDLG PDZ domain 3 (Mus musculus (Mouse)), P70175
T13 chain: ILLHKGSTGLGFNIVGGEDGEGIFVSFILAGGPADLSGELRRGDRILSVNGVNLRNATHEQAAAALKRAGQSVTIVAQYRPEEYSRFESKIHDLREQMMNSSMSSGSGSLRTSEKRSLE

T14: GST-ZO-2 PDZ domain 1 (Homo sapiens (Human)), Q9UDY2
T14 chain: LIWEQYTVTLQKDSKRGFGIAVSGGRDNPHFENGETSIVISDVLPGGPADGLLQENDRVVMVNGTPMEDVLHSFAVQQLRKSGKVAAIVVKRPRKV

T15: GST-X-11 beta PDZ domain 2 (Rattus norvegicus (Rat)), O35431
T15 chain: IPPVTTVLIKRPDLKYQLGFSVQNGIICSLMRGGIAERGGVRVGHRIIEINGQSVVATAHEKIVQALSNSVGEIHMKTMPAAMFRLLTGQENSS

T16: GST-ZO-1 PDZ domain 2 (Rattus norvegicus (Rat)), A0A0G2
T16 chain: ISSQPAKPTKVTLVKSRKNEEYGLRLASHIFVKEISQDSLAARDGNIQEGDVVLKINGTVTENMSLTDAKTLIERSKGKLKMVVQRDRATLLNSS


Key:
Assay in all cases: G' assay
[1] = molecular target: T1, GST-NOS1 PDZ domain 1 (Homo sapiens …)
[2] = molecular target: T2, GST-Shank 1 PDZ domain 1 (Homo sapiens …)
[3] = molecular target: T3, GST-EZRIN Binding Protein 50 PDZ domain …
[4] = molecular target: T4, GST-MUPP1 PDZ domain 10 (Homo sapiens …)
GST-ZO-3 PDZ domain 1 = molecular target: T5, GST-ZO-3 PDZ domain 1
[5] = molecular target: T6, GST-ZO-3 PDZ domain 3 (Homo sapiens …)
[6] = molecular target: T7, GST-INADL PDZ domain 8 (Homo sapiens …)
[7] = molecular target: GST-PSD95 PDZ domains 1, 2, 3 (Homo sapiens), P78352
Chain of GST-PSD95 PDZ domains 1, 2, 3 (Homo sapiens), P78352 (P78352 62-395): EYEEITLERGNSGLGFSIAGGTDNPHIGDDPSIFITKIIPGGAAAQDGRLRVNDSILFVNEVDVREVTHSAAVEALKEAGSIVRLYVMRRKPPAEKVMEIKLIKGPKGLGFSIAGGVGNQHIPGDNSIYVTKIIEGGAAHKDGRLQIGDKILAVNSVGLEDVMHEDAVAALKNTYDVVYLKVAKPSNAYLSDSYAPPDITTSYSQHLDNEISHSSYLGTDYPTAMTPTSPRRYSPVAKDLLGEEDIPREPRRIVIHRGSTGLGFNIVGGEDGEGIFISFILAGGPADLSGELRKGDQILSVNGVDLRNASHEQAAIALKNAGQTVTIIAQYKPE

[8] = molecular target: GST-BAI-1 Associated Protein PDZ domain 5 (Homo sapiens (Human)), Q96QZ7
Chain of GST-BAI-1 Associated Protein PDZ domain 5 (Homo sapiens (Human)), Q96QZ7 (Q96QZ7 988-1099): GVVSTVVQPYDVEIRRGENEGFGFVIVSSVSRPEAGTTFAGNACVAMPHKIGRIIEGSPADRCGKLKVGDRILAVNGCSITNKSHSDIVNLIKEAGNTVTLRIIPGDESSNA

[9] = molecular target: T8, GST-KIAA0147 PDZ domain 2 (Homo sapiens …)
[10] = molecular target: GST-TAX IP2 PDZ domain 1 [GST: P08515]
Chain of GST-TAX IP2 PDZ domain 1 [GST: P08515] (P08515 whole entry, the tested form may be a part): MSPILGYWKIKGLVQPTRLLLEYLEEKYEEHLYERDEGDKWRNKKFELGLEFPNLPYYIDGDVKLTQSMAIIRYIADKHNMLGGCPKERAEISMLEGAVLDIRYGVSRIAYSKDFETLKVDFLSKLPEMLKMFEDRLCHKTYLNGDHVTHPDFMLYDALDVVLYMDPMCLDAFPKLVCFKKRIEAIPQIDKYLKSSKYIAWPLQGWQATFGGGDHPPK

[11] = molecular target: T9, GST-DLG1 PDZ domain 2 (Homo sapiens), …
[12] = molecular target: T10, GST-Syntrophin gamma 2 PDZ domain 1 …
[13] = molecular target: GST-PSD95 PDZ domain 1 (Homo sapiens)
[14] = molecular target: T11, GST-DLG2 PDZ domain 2 (Homo sapiens …)
[15] = molecular target: T12, GST-KIAA1634 PDZ domain 2 (Homo sapiens …)
[16] = molecular target: T13, GST-NeDLG PDZ domain 3 (Mus musculus …)
[17] = molecular target: GST-BAI-1 Associated Protein PDZ domain 4 (Homo sapiens (Human)), Q96QZ7
Chain of GST-BAI-1 Associated Protein PDZ domain 4 (Homo sapiens (Human)), Q96QZ7 (Q96QZ7 other isoform, or with tags, fused parts or gaps): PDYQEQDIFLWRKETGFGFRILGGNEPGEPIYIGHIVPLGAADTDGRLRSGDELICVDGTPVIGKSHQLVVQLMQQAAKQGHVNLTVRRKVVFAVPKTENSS

[18] = molecular target: T14, GST-ZO-2 PDZ domain 1 (Homo sapiens …)
[19] = molecular target: T15, GST-X-11 beta PDZ domain 2 (Rattus …)
[20] = molecular target: T16, GST-ZO-1 PDZ domain 2 (Rattus …)
Also: key of the grades not given here.

Row | Binder | Classification [1] | Classification [4] | Classification [5] | Classification [6] | Classification [7] | Classification [11] | Classification [13] | Classification [14] | Classification [15] | Classification [16] | Classification [17] | also measured
1 | AWDDSARAAGGQGLHVTAL (modifications not checked) [LPAP] | – | – | – | – | – | – | – | – | – | – | – | Classification ([1]; remark: other sources report otherwise): 1 A450 class; Classification [2]: 3 A450 class; Classification [3]: 5 A450 class
2 | KTMPAAMYRLLTAQEQPVYI (modifications not checked) [MINT-1] | 4 A450 class | 1 A450 class | 1 A450 class | 1 A450 class | – | – | – | – | – | – | – | Classification (GST-ZO-3 PDZ domain 1): 2 A450 class
3 | QISPGGLEPPSEKHFRETEV (modifications not checked) [TAX] | – | – | – | – | 5 A450 class | 5 A450 class | 5 A450 class | 5 A450 class | 2 A450 class | 5 A450 class | 2 A450 class | Classification [8]: 5 A450 class; Classification [9]: 5 A450 class; Classification [10]: 2 A450 class; Classification [12]: 1 A450 class
4 | PYSELNYETSHYPASPDSWV (modifications not checked) [catenin - delta 2] | – | – | 3 A450 class | 2 A450 class | 2 A450 class | 2 A450 class | 1 A450 class | 1 A450 class | – | 1 A450 class | – | Classification [9]: 3 A450 class
5 | VGTLLLERVIFPSVKIATLV (modifications not checked) [AdenoE4 typ9] | 5 A450 class | 1 A450 class | – | 2 A450 class | 5 A450 class | 5 A450 class | 4 A450 class | 5 A450 class | 5 A450 class | – | 5 A450 class | Classification [18]: 3 A450 class
6 | HDFRRAFKKILARGDRKRIV (modifications not checked) [alpha-2A Adrenergic receptor] | – | – | – | – | – | – | – | – | – | – | – | Classification [19]: 1 A450 class; Classification [20]: 4 A450 class
7 | PIPAGGCTFSGIFPTLTSPL (modifications not checked) [KIA 1481] | – | – | – | – | – | – | – | – | 1 A450 class | – | 1 A450 class | Classification [8]: 3 A450 class; Classification [2]: 5 A450 class; Classification [3]: 2 A450 class
8 | VPGALDYAAFSSALYGESDL (modifications not checked) [a-actinin 2] | – | – | – | – | – | 1 A450 class | – | – | – | – | – | Classification [10]: 5 A450 class; Classification [12]: 1 A450 class; Classification [2]: 1 A450 class
9 | ILNSIQVMRAQMNQIQSVEV (modifications not checked) [ephrin B2] | – | – | 1 A450 class | – | – | – | – | – | 1 A450 class | 1 A450 class | – | Classification [19]: 1 A450 class; Classification [20]: 2 A450 class; Classification [18]: 1 A450 class; Classification (GST-ZO-3 PDZ domain 1): 1 A450 class; Classification [3]: 1 A450 class
10 | TQGFPGPATWRRISSLESEV (modifications not checked) [NMDA Glutamate Receptor 2C (cysteine-free)] | 1 A450 class | 1 A450 class | – | 1 A450 class | 5 A450 class | 5 A450 class | 5 A450 class | 5 A450 class | 3 A450 class | 1 A450 class | 3 A450 class | Classification [8]: 4 A450 class; Classification [9]: 1 A450 class; Classification [10]: 4 A450 class; Classification [12]: 2 A450 class
11 | ELLQFCRTPNPALKNGQYWV (modifications not checked) [CSPG4 (chondroitin sulfae proteoglycan 4, melanoma-associated)] | 2 A450 class | 4 A450 class | 5 A450 class | 3 A450 class | – | – | – | – | – | – | – | Classification [19]: 2 A450 class; Classification [20]: 4 A450 class; Classification [18]: 5 A450 class; Classification (GST-ZO-3 PDZ domain 1): 2 A450 class
